Data on 167 variants can be found in the RNAGym collection of RNA variant scans (doi:10.7554/elife.90254).

B1: LINE1-full (parent)
chain: UACGUAGGUGGUUUUCCCCUGAUAGUGCUAAGGGGGCCUGGAAGUUUGGACUGGGCAGAGCUCAACACAGCGUGGCAAAGUGGCUGUGGCUAGACUGCCUCUCUGGAUUCCUCGUCACUCAGCAGGGCAUCUCUGAGAGAAAUGCC

In this series the parent is B1. In words: self-cleavage, relative activity (ratio to wild type); higher = more cleavage; in vitro, sequencing; the parent is a self-cleaving ribozyme.
U115C A129G: the self-cleavage worked out at 1.64.
On to U119C A136G, for which the self-cleavage turned out to be 1.98.
Turning to U119C A136U, the self-cleavage was found to be 1.87.
As for A121G U134G, the self-cleavage came out at 1.58.
In the case of A121G U134C it was 1.88; in that of G122A A140U, 1.47; in that of G122A A140G, 0.53.
As for C123U U130A, the self-cleavage was found to be 1.72.
With C123U U130C the figure was 1.74.
With C123A, the self-cleavage was found to be 1.19.
In the case of C123U it was 1.16; in that of C123G, 1.36.
For the variant G114A A138G, the self-cleavage was 1.47.
On to A117G G137A, for which the self-cleavage is 1.66.
With C118U A138U the figure was 0.2; with C118U A138G, 1.18; with U115C G122A, 1.77.
Take A117G U134A: the self-cleavage is 1.37.
Turning to C123G U132C, the self-cleavage stood at 1.43.
A124C A129G: the self-cleavage was determined as 0.66.
Regarding A121G A124G, the self-cleavage stood at 0.97.
For the variant G125C U134C, the self-cleavage was found to be 1.58.
With U115A A138C, the self-cleavage worked out at 1.8.
Regarding C113U A129U, the self-cleavage was 1.86.
In the case of A121U it was 1.34; in that of A121G, 1.56; in that of A121C, 1.51.
Consider U119C G144A, for which the self-cleavage is 1.26.
U119C G135A: the self-cleavage was found to be 2.34.
As to U115G, the self-cleavage came out at 1.5.
For U115A, the self-cleavage came out at 1.36.
Take U115C: the self-cleavage was 1.58.
Consider G122A A138G, for which the self-cleavage stood at 0.78.
C116A A142C: the self-cleavage is 1.54.
As to U119C C128U, the self-cleavage came out at 1.13.
U119A A136U: the self-cleavage worked out at 1.3.
Consider C118U C131U, for which the self-cleavage is 1.66.
For the variant A121G A140G, the self-cleavage is 1.84.
Turning to C116U A121G, the self-cleavage turned out to be 1.57.
For A124U C145U, the self-cleavage was determined as 1.27.
As for A117G A129U, the self-cleavage is 1.29.
In the case of A124U A140G, the self-cleavage was determined as 1.5.
As to U115C U119C, the self-cleavage came to 2.04.
As to A121G A141G, the self-cleavage turned out to be 1.65.
As to G122C U134C, the self-cleavage is 1.68.
On to G125A U132C, for which the self-cleavage is 1.55.
Turning to A124G G126A, the self-cleavage is 1.22.
U115G A129G: the self-cleavage was 1.16.
For A121C U134A, the self-cleavage was determined as 0.84.
For the variant A121G G127A, the self-cleavage came out at 1.74.
In the case of A121G A138C it was 1.71; in that of A121G A138G, 1.86; in that of A121G A138U, 1.59.
For A121G A129U, the self-cleavage was 1.59.
Take A121G A129G: the self-cleavage is 1.58.
In the case of U115C A142G it was 2.05.
Turning to C123A A140G, the self-cleavage stood at 1.42.
On to C116U U134C, for which the self-cleavage was 1.11.
As to A117C A141G, the self-cleavage was found to be 2.57.
As to A121U G122A, the self-cleavage stood at 0.27.
Regarding A117G U143C, the self-cleavage was found to be 1.45.
In the case of A117G U143A, the self-cleavage was 0.83.
For the variant A124G A142U, the self-cleavage was 0.94.
Turning to A124G A142C, the self-cleavage came out at 0.58.
Turning to G122A U134C, the self-cleavage was 1.43.
Turning to U115G A136G, the self-cleavage amounted to 1.53.
Consider A124U U134C, for which the self-cleavage is 1.51.
With G114A U119C the figure was 1.2; with U115A A142U, 1.38; with U115A A142G, 0.9.
Turning to A124G C145A, the self-cleavage amounted to 1.22.
With U115A A117U the figure was 1.82; with U115A A140G, 1.27; with C116U A140U, 0.71.
Turning to U115C C146A, the self-cleavage was 1.82.
As for A121G C146U, the self-cleavage is 1.39.
With C118U U143A the figure was 1.31.
Regarding U119C U130C, the self-cleavage stood at 1.72.
With U119C U130A the figure was 1.93.
In the case of U115G C145U, the self-cleavage came out at 1.1.
A121U U134C: the self-cleavage was 1.35.
As to G114C A138G, the self-cleavage turned out to be 1.41.
In the case of A124G G139U it was 1.91; in that of A117G A142G, 1.25.
For A121G G125A, the self-cleavage worked out at 1.29.
For G114A U115C, the self-cleavage came out at 1.58.
On to A117U G135A, for which the self-cleavage was found to be 1.79.
In the case of A117U G135U it was 1.68.
With U119C A140G the figure was 1.88; with A117U A124C, 1.77.
On to A117U A124U, for which the self-cleavage turned out to be 1.26.
In the case of G125A it was 1.19; in that of G125C, 1.59.
Regarding A117C A124G, the self-cleavage is 1.7.
In the case of A117C A124U it was 1.14; in that of G114A A141G, 0.89; in that of A124U G127A, 0.9.
With A124U C133A, the self-cleavage was 1.59.
Consider A124G C133A, for which the self-cleavage is 0.81.
In the case of A117U G126C, the self-cleavage came to 1.47.
With C113U A136U the figure was 1.75; with C113U G126A, 1.62.
In the case of A124U C128U it was 1.21; in that of A117C U143A, 1.38.
Consider G122U U130C, for which the self-cleavage is 1.21.
In the case of U119C A141G, the self-cleavage stood at 1.87.
Turning to U119A A121U, the self-cleavage amounted to 1.67.
As for U119A G125U, the self-cleavage is 1.07.
Consider G114A A136U, for which the self-cleavage is 2.15.
On to C120G A129G, for which the self-cleavage was found to be 1.23.
Turning to U119C U143C, the self-cleavage came out at 1.49.
For the variant U119C A124U, the self-cleavage is 1.58.
With U119C A124G, the self-cleavage turned out to be 1.62.
Take C118U U134C: the self-cleavage came out at 1.13.
In the case of C120U A129G it was 1.84; in that of A124G U134A, 0.39.
Regarding A124G U134C, the self-cleavage stood at 0.89.
A124G U132A: the self-cleavage was 0.87.
Regarding A124G U132C, the self-cleavage was found to be 0.82.
Regarding C123G A124G, the self-cleavage worked out at 0.74.
With G125A A129C, the self-cleavage was found to be 1.36.
Consider A121U A141G, for which the self-cleavage came to 1.24.
Take A121G U143A: the self-cleavage turned out to be 0.91.
With A121G U143G the figure was 0.5; with G125A G144A, 1.33; with U119C A142G, 1.33.
For the variant U119C A142U, the self-cleavage is 1.95.
With C116U U132C, the self-cleavage is 0.91.
With C113U A140G the figure was 0.69; with A121U A129U, 1.41.
Turning to C116G U134C, the self-cleavage was found to be 0.99.
On to A121U U132A, for which the self-cleavage stood at 1.36.
Consider A121U U143G, for which the self-cleavage came out at 2.
For the variant C113U A141G, the self-cleavage worked out at 0.94.
In the case of U119A A141U it was 1.29.
C120U A142G: the self-cleavage was found to be 1.59.
As to C120U A142U, the self-cleavage was determined as 1.52.
As to A117U A138U, the self-cleavage was 1.16.
With A117U A138G the figure was 1.52; with U115C A136U, 1.99; with A117G A121G, 1.38.
On to A117G A121U, for which the self-cleavage was determined as 1.86.
With A117G A121C the figure was 1.78.
With A121G C145A the figure was 1.6; with G114U, 1.4.
Take G114A: the self-cleavage was 1.17.
For G114C, the self-cleavage came out at 1.63.
Turning to A117C G144A, the self-cleavage stood at 1.79.
U115G U119A: the self-cleavage was 1.36.
On to C123U U132A, for which the self-cleavage stood at 1.13.
As to A124C A142G, the self-cleavage amounted to 0.53.
As for G114A A121G, the self-cleavage was determined as 1.32.
Consider U115C U130G, for which the self-cleavage came out at 0.66.
Regarding A121G C128U, the self-cleavage was 1.6.
In the case of C116U G125C, the self-cleavage was 1.54.
With U119C U134A the figure was 1.92; with U119A A142G, 1.48.
With C120U A124G, the self-cleavage is 1.26.
In the case of G122A U143C, the self-cleavage was 1.11.
In the case of A121U G125C it was 1.28.
Consider A121U G125A, for which the self-cleavage is 1.23.
With C113U U130C, the self-cleavage turned out to be 1.77.
Consider A124U A141G, for which the self-cleavage stood at 1.36.
As to C113U U119A, the self-cleavage was 0.82.
Regarding A117U G122U, the self-cleavage was 1.72.
Regarding C116A U132A, the self-cleavage was 0.67.
On to C123U A136G, for which the self-cleavage was 1.49.
